Assay results: paper PMC5779224 (2017)

What was measured:
Assay in all cases: ITC
AnkB R6-24 = target: T1, AnkB R6-24 (Homo sapiens)
T1 chain: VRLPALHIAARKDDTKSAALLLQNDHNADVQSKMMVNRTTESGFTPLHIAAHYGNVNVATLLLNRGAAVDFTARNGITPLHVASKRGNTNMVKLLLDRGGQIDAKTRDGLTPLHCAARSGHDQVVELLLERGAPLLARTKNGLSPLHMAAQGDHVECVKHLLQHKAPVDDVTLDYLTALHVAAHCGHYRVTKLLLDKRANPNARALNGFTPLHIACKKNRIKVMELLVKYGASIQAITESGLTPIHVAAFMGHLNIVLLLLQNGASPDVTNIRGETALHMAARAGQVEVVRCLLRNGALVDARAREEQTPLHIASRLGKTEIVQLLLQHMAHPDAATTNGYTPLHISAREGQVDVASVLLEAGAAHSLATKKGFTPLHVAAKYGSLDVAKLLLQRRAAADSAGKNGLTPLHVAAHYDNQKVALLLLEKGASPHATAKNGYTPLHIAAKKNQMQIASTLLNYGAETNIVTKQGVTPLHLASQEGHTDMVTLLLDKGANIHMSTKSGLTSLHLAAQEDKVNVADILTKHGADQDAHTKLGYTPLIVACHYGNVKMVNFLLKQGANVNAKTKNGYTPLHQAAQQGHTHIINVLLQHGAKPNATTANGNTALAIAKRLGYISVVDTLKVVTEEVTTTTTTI

AnkB R1-14 = target: T2, AnkB R1-14 (Homo sapiens)
T2 chain: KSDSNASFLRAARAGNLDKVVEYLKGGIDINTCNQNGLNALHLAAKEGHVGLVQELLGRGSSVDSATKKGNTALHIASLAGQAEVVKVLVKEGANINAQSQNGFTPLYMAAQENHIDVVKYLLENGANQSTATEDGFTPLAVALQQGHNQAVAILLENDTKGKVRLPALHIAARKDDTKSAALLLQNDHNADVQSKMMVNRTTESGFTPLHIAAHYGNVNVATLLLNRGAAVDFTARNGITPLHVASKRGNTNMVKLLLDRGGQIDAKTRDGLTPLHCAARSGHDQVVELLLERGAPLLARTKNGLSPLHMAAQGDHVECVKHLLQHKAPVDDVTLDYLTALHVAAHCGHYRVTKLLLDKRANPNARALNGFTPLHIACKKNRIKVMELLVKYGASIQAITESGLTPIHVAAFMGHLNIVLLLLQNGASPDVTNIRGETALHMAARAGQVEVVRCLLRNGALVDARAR

[1] = target: T3, AnkB 28–873 (MBD + full AI-c) (human, UniProt Q01484-2 28-873)
T3 chain: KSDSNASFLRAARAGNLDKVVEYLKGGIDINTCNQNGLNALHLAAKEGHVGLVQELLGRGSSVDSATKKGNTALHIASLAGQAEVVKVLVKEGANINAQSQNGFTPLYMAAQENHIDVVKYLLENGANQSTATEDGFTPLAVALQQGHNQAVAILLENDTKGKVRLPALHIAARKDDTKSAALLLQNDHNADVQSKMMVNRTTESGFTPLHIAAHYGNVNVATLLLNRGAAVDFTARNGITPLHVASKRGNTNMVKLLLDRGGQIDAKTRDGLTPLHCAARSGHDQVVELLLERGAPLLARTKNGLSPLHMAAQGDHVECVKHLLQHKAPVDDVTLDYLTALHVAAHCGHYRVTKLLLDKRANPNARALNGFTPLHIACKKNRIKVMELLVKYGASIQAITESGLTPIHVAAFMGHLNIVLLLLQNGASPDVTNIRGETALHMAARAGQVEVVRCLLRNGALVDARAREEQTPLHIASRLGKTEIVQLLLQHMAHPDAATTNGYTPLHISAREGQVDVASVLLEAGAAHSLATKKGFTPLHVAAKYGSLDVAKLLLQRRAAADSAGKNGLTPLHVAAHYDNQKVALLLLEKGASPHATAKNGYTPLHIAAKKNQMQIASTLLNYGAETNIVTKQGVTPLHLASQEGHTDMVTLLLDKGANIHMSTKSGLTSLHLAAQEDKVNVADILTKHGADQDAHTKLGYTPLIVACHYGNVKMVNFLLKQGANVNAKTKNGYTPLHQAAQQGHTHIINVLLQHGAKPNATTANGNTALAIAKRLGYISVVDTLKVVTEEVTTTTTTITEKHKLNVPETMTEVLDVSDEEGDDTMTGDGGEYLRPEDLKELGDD

Kd (AnkB R6-24): 4.7 µM
Kd (AnkB R1-14): 4.1 µM
Kd [1]: 2.2 µM
B1: AnkB entire linker (aa 828–965) (domain or fragment)
chain: TEKHKLNVPETMTEVLDVSDEEGDDTMTGDGGEYLRPEDLKELGDDSLPSSQFLDGMNYLRYSLEGGRSDSLRSFSSDRSHTLSHASYLRDSAVMDDSVVIPSHQVSTLAKEAERNSYRLSWGTENLDNVALSSSPIH
